# B1: Crk-like protein (Homo sapiens), P46109 (parent)
# chain: MSSARFDSSDRSAWYMGPVSRQEAQTRLQGQRHGMFLVRDSSTCPGDYVLSVSENSRVSHYIINSLPNRRFKIGDQEFDHLPALLEFYKIHYLDTTTLIEPAPRYPSPPMGSVSAPNLPTAEDNLEYVRTLYDFPGNDAEDLPFKKGEILVIIEKPEEQWWSARNKDGRVGMIPVPYVEKLVRSSPHGKHGNRNSNSYGIPEPAHAYAQPQTTTPLPAVSGSPGAAITPLPSTQNGPVFAKAIQKRVPCAYDKTALALEVGDIVKVTRMNINGQWEGEVNGRKGLFPFTHVKIFDPQNPDENE
# Variants of: B1
# Conditions: with insr_human INSR
row,effect of a mutation on the interaction,Variant
1,decreasing interaction,H33R;S53P;K72R

# Variants of: B1
# Conditions: with insr_human INSR
# Remark: another data set of the same source
row,effect of a mutation on the interaction,Variant
1,decreasing interaction,H33R;S53P;K72R
